Numbered stars: 1 amine (or outer) side, 2 acyl side, 3 side chain; on linkers, the order of the positions; unused ones are H or OH. Bridge positions count the residues as written; N and C are the ends. Side chains are listed from the residue outwards. Ends that are not written are not given here. * marks the point of attachment. C20 diacid = O=C(O)CCCCCCCCCCCCCCCCCCC(=O)*; γGlu = O=C(O)[C@H](CCC(=O)[*:2])N[*:1]; AEEA = NCCOCCOCC(=O)O
T1: human amylin receptor (amylin 3(a) receptor: human calcitonin receptor plus RAMP-3) (human, UniProt P30988 25-474; O60896 24-148)
T1 sequence (looked up) 1: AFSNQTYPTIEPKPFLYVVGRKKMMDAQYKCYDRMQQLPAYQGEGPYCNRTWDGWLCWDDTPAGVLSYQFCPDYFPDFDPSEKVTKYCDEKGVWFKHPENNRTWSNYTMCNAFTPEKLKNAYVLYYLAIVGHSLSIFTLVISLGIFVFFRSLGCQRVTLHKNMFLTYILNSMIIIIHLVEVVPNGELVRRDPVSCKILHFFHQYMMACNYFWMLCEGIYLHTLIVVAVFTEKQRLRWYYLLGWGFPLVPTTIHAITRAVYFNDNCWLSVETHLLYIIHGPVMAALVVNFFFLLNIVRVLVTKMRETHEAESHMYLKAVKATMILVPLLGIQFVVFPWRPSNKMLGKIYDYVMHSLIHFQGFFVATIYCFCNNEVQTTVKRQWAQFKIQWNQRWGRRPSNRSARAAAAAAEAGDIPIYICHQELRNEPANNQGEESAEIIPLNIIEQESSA
T1 sequence (looked up) 2: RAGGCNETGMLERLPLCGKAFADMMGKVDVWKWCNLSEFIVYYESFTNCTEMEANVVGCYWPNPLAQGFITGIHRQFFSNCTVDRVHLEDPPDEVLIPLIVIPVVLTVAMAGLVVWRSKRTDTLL

T2: human calcitonin receptor (human, UniProt P30988 25-474)
T2 sequence (looked up): T1 sequence (looked up) 1

B1: N^ε1-[2-[2-[2-[[(4S)-4-carboxy-4-(19-carboxynonadecanoylamino)butanoyl]amino]ethoxy]ethoxy]acetyl]-[Arg17,Pro21,Pro27,Pro31,His35]-h-amylin (peptide)
peptide: K([AEEA-γGlu-C20 diacid])CNTATCATQRLANFLRHSSPNFGAIPSSTPVGSHTY-NH2
modifications: disulfide 2-7; N-terminus assumed
SMILES: CC[C@H](C)[C@H](NC(=O)[C@H](C)NC(=O)CNC(=O)[C@H](Cc1ccccc1)NC(=O)[C@H](CC(N)=O)NC(=O)[C@@H]1CCCN1C(=O)[C@H](CO)NC(=O)[C@H](CO)NC(=O)[C@H](Cc1c[nH]cn1)NC(=O)[C@H](CCCNC(=N)N)NC(=O)[C@H](CC(C)C)NC(=O)[C@H](Cc1ccccc1)NC(=O)[C@H](CC(N)=O)NC(=O)[C@H](C)NC(=O)[C@H](CC(C)C)NC(=O)[C@H](CCCNC(=N)N)NC(=O)[C@H](CCC(N)=O)NC(=O)[C@@H](NC(=O)[C@H](C)NC(=O)[C@@H]1CSSC[C@H](NC(=O)[C@@H](N)CCCCNC(=O)COCCOCCNC(=O)CC[C@H](NC(=O)CCCCCCCCCCCCCCCCCCC(=O)O)C(=O)O)C(=O)N[C@@H](CC(N)=O)C(=O)N[C@@H]([C@@H](C)O)C(=O)N[C@@H](C)C(=O)N[C@@H]([C@@H](C)O)C(=O)N1)[C@@H](C)O)C(=O)N1CCC[C@H]1C(=O)N[C@@H](CO)C(=O)N[C@@H](CO)C(=O)N[C@H](C(=O)N1CCC[C@H]1C(=O)N[C@H](C(=O)NCC(=O)N[C@@H](CO)C(=O)N[C@@H](Cc1c[nH]cn1)C(=O)N[C@H](C(=O)N[C@@H](Cc1ccc(O)cc1)C(N)=O)[C@@H](C)O)C(C)C)[C@@H](C)O
notes: also called compound 57
B2: N^ε1-[(4S)-4-carboxy-4-(19-carboxynonadecanoylamino)butanoyl]-[Arg17,Pro21,Pro27,Glu35]-h-amylin (peptide)
peptide: K([γGlu-C20 diacid])CNTATCATQRLANFLRHSSPNFGAIPSSTNVGSETY-NH2
modifications: disulfide 2-7; N-terminus assumed
SMILES: CC[C@H](C)[C@H](NC(=O)[C@H](C)NC(=O)CNC(=O)[C@H](Cc1ccccc1)NC(=O)[C@H](CC(N)=O)NC(=O)[C@@H]1CCCN1C(=O)[C@H](CO)NC(=O)[C@H](CO)NC(=O)[C@H](Cc1c[nH]cn1)NC(=O)[C@H](CCCNC(=N)N)NC(=O)[C@H](CC(C)C)NC(=O)[C@H](Cc1ccccc1)NC(=O)[C@H](CC(N)=O)NC(=O)[C@H](C)NC(=O)[C@H](CC(C)C)NC(=O)[C@H](CCCNC(=N)N)NC(=O)[C@H](CCC(N)=O)NC(=O)[C@@H](NC(=O)[C@H](C)NC(=O)[C@@H]1CSSC[C@H](NC(=O)[C@@H](N)CCCCNC(=O)CC[C@H](NC(=O)CCCCCCCCCCCCCCCCCCC(=O)O)C(=O)O)C(=O)N[C@@H](CC(N)=O)C(=O)N[C@@H]([C@@H](C)O)C(=O)N[C@@H](C)C(=O)N[C@@H]([C@@H](C)O)C(=O)N1)[C@@H](C)O)C(=O)N1CCC[C@H]1C(=O)N[C@@H](CO)C(=O)N[C@@H](CO)C(=O)N[C@H](C(=O)N[C@@H](CC(N)=O)C(=O)N[C@H](C(=O)NCC(=O)N[C@@H](CO)C(=O)N[C@@H](CCC(=O)O)C(=O)N[C@H](C(=O)N[C@@H](Cc1ccc(O)cc1)C(N)=O)[C@@H](C)O)C(C)C)[C@@H](C)O
notes: also called compound 27
B3: N^ε1-[2-[2-[2-[[(4S)-4-carboxy-4-(19-carboxynonadecanoylamino)butanoyl]amino]ethoxy]ethoxy]acetyl]-[Arg17,Pro21,Pro27,Pro34,His35]-h-amylin (peptide)
peptide: K([AEEA-γGlu-C20 diacid])CNTATCATQRLANFLRHSSPNFGAIPSSTNVGPHTY-NH2
modifications: disulfide 2-7; N-terminus assumed
SMILES: CC[C@H](C)[C@H](NC(=O)[C@H](C)NC(=O)CNC(=O)[C@H](Cc1ccccc1)NC(=O)[C@H](CC(N)=O)NC(=O)[C@@H]1CCCN1C(=O)[C@H](CO)NC(=O)[C@H](CO)NC(=O)[C@H](Cc1c[nH]cn1)NC(=O)[C@H](CCCNC(=N)N)NC(=O)[C@H](CC(C)C)NC(=O)[C@H](Cc1ccccc1)NC(=O)[C@H](CC(N)=O)NC(=O)[C@H](C)NC(=O)[C@H](CC(C)C)NC(=O)[C@H](CCCNC(=N)N)NC(=O)[C@H](CCC(N)=O)NC(=O)[C@@H](NC(=O)[C@H](C)NC(=O)[C@@H]1CSSC[C@H](NC(=O)[C@@H](N)CCCCNC(=O)COCCOCCNC(=O)CC[C@H](NC(=O)CCCCCCCCCCCCCCCCCCC(=O)O)C(=O)O)C(=O)N[C@@H](CC(N)=O)C(=O)N[C@@H]([C@@H](C)O)C(=O)N[C@@H](C)C(=O)N[C@@H]([C@@H](C)O)C(=O)N1)[C@@H](C)O)C(=O)N1CCC[C@H]1C(=O)N[C@@H](CO)C(=O)N[C@@H](CO)C(=O)N[C@H](C(=O)N[C@@H](CC(N)=O)C(=O)N[C@H](C(=O)NCC(=O)N1CCC[C@H]1C(=O)N[C@@H](Cc1c[nH]cn1)C(=O)N[C@H](C(=O)N[C@@H](Cc1ccc(O)cc1)C(N)=O)[C@@H](C)O)C(C)C)[C@@H](C)O
notes: also called compound 58
B4: N^ε1-[(4S)-4-carboxy-4-(19-carboxynonadecanoylamino)butanoyl]-[Arg17,Pro21,Pro27,His35]-h-amylin (peptide)
peptide: K([γGlu-C20 diacid])CNTATCATQRLANFLRHSSPNFGAIPSSTNVGSHTY-NH2
modifications: disulfide 2-7; N-terminus assumed
SMILES: CC[C@H](C)[C@H](NC(=O)[C@H](C)NC(=O)CNC(=O)[C@H](Cc1ccccc1)NC(=O)[C@H](CC(N)=O)NC(=O)[C@@H]1CCCN1C(=O)[C@H](CO)NC(=O)[C@H](CO)NC(=O)[C@H](Cc1c[nH]cn1)NC(=O)[C@H](CCCNC(=N)N)NC(=O)[C@H](CC(C)C)NC(=O)[C@H](Cc1ccccc1)NC(=O)[C@H](CC(N)=O)NC(=O)[C@H](C)NC(=O)[C@H](CC(C)C)NC(=O)[C@H](CCCNC(=N)N)NC(=O)[C@H](CCC(N)=O)NC(=O)[C@@H](NC(=O)[C@H](C)NC(=O)[C@@H]1CSSC[C@H](NC(=O)[C@@H](N)CCCCNC(=O)CC[C@H](NC(=O)CCCCCCCCCCCCCCCCCCC(=O)O)C(=O)O)C(=O)N[C@@H](CC(N)=O)C(=O)N[C@@H]([C@@H](C)O)C(=O)N[C@@H](C)C(=O)N[C@@H]([C@@H](C)O)C(=O)N1)[C@@H](C)O)C(=O)N1CCC[C@H]1C(=O)N[C@@H](CO)C(=O)N[C@@H](CO)C(=O)N[C@H](C(=O)N[C@@H](CC(N)=O)C(=O)N[C@H](C(=O)NCC(=O)N[C@@H](CO)C(=O)N[C@@H](Cc1c[nH]cn1)C(=O)N[C@H](C(=O)N[C@@H](Cc1ccc(O)cc1)C(N)=O)[C@@H](C)O)C(C)C)[C@@H](C)O
notes: also called compound 60

These binders were tested against T1, human amylin receptor (amylin 3(a) …) (assay: cell-based or functional assay).
With B1 the “Ratio hCT/hAmylin funct.” value was 35 and the “hAmylin-R funct. EC50 (pM)” value was 89 pM.
In the case of B2, the “Ratio hCT/hAmylin funct.” value is reported as 22.6 and the “hAmylin-R funct. EC50 (pM)” value is reported as 133 pM.
For B3, the “Ratio hCT/hAmylin funct.” value was 21.9 and the “hAmylin-R funct. EC50 (pM)” value was 47 pM.
B4 was tested, and the “Ratio hCT/hAmylin funct.” value was 15.3 and the “hAmylin-R funct. EC50 (pM)” value was 351 pM.

These binders were tested against T2, human calcitonin receptor (assay: cell-based or functional assay).
For B1, the “hCTR funct. EC50 (pM)” value was 3120 pM.
B2 was tested, and the “hCTR funct. EC50 (pM)” value was 3000 pM.
B3 was tested, and the “hCTR funct. EC50 (pM)” value was 1030 pM.
With B4 the “hCTR funct. EC50 (pM)” value was 5360 pM.

The binders below were run against T1, human amylin receptor (amylin 3(a) …) (assay: SPA competition binding, displacement of 125I-rat amylin, membranes of BHK amylin 3(a)/CRE-luc cells).
Experimental: The binding assay was performed using scintillation proximity assay (SPA) beads (RPNQ0001) from PerkinElmer and cell membranes from the Amylin 3(a)/CRE-luc cells (as described in Assay (II)) were used. Membranes were prepared in the following way; the cells were rinsed with PBS and incubated with Versene for approximately 5 min before harvesting. The cells were flushed with PBS and the cell-suspension was centrifuged for 5 min at 1000 rpm. Cells were homogenized (ultrathurrax) in a buffer containing 20 mM Na-HEPES and 10 mM EDTA (pH 7.4) and centrifuged at 20.000 rpm for 15 min. The resulting pellet was resuspended, homogenized and centrifuged (20.000 rpm, 15 min) in a buffer containing 20 mM Na-HEPES and 0.1 mM EDTA (pH 7.4, buffer 2). The resulting pellet was resuspended in buffer 2 and protein concentration was measured (BCA protein Assay, Pierce). The homogenate was kept cold during the whole procedure. The membranes were kept at −80° C. until use. The assay was performed in a 384 well Optiplate (PerkinElmer) in a total volume of 40 ul. Membranes were mixed with SPA beads. Final concentration of membranes 35 ng/μL final and SPA beads was 0.05 mg/well. Test-compounds were dissolved in DMSO and further diluted in assay buffer (50 mM Hepes, pH 7.4, 1 mM CaCl2, 5 mM MgCl₂, 0.1% OA and 0.02% Tween20). […] The final mixture was incubated with shaking at 400 rpm for 120 min at 25° C. prior to centrifugation (1500 rpm, 10 min). Samples were analyzed on TopCounter™ (Packard). The IC₅₀ was calculated using (one site binding competition analysis) GraphPad Prism5 as a measure of receptor affinity.
With B1 the IC50 was 0.115 nM.
With B2 the IC50 was 0.837 nM.
B3 was tested, and the IC50 was 0.088 nM.
Binder B4 has an IC50 of 0.695 nM.

Source: US20140087995A1 (published 2014)
